Molecular target: A. franciscana ATP synthase c-subunit (c8-ring) (A. franciscana (endogenous in A. franciscana mitochondria))
Experiment: cryo-EM structure; single-particle cryo-EM of the ATP synthase monomer purified from A. franciscana mitochondria in DDM at pH 7.0; rotational states 1, 2 and 3a; local refinement of F1 and FO

stoichiometry N: 8
Substance: A. franciscana ATP synthase c-subunit (c8-ring) (natural protein)
